Source: patent publication US20070141066A1, “Method for Diagnosing, Prognosing and Treating Glioma” (Genentech, Inc., priority 2005, published 2007)

Tested on: neural stem cell lines derived from fetal human brain
Experiment: Expression signature (35 signature genes) of neural stem cell lines after BDNF treatment and withdrawal
Format: cell-based
Settings: two neural stem cell lines
Procedure: Signal intensity values from Microarray Analysis Suite version were utilized with a scaling factor of 500 for all analysis of microarray data. K-means clustering and agglomerative clustering were performed with the use of Spotfire Decision Site software version 7.3 using Pearson correlation as the similarity measure. For each gene, data was normalized into Z scores prior to clustering. The 35 signature genes used for tumor classification represent the most robust markers for each of three tumor subsets in the MDA survival sample set. Markers of each subset are identified as follows: Each of the 76 samples is assigned to one of three groups based on k-means clustering of expression of the 108 genes most strongly correlated with survival. Using a p value cutoff of 1×10^−4, t tests were utilized to identify all genes whose expression differed between samples in each subclass compared to tumors of other subclasses (see Table A, GDM). For each comparison, we then rank-ordered the 500 probe sets with the smallest p values, by fold change. […] The final 35 signature genes contain 15 PN, 15 Mes, and 5 Prolif markers. […] For statistical comparisons of data presented in FIG. 4 F-I and FIG. 7, log-transformed data was analyzed via t tests corrected for multiple group comparisons. […]

B1: BDNF: the neurotrophic factor BDNF (protein, UniProt P23560 19-247, looked up)
Neurotrophic factor BDNF …: APMKEANIRGQGGLAYPGVRTHGTLESVNGPKAGSRGLTSLADTFEHVIEELLDEDQKVRPNEENNKDADLYTSRVMLSSQVPLEPPLLFLLEEYKNYLDAANMSMRVRRHSDPARRGELSVCDSISEWVTAADKKTAVDMSGGTVTVLEKVPVSKGQLKQYFYETKCNPMGYTKEGCRGIDKRHWNSQCRTTQSYVRALTMDSKKRIGWRFIRIDTSCVCTLTIKRGR
  shift of expression signature subclass: shifted signature subclass from the PN to the Mes class
